Experimental findings from publication PMC6134095 are described below.

Experiment [1] deals with FtsQ (58–276), periplasmic domain of E. coli FtsQ (Escherichia coli strain K-12) (UniProt P06136). Put plainly: SPR; FtsQ (58–276) immobilised on a CM5 chip by amide coupling (~1,000 RU); Biacore T200, 20°C; 10 mM HEPES pH 7.4, 150 mM NaCl, 0.4% glycerol; analytes injected 120 s, 600 s dissociation, 1:2 dilution series, triplicate. (In general: In SPR one partner is held on a chip, and binding of the other changes the refractive index at the surface.)
FtsQ (58–276), periplasmic domain of E. coli FtsQ (Escherichia coli strain K-12), sequence (P06136 58-276): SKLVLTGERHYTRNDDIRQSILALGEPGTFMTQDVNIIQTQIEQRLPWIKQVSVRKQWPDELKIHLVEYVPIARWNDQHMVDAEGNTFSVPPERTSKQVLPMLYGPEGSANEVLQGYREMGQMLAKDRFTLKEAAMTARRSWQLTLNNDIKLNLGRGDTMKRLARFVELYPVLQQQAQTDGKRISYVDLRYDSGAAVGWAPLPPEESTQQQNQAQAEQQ

For experiment [2], the target named is FITC-labeled FtsB 64–87 peptide (E. coli) (UniProt P0A6S5). Put plainly: fluorescence polarisation; 10 nM FITC-labeled FtsB 64–87 peptide, FtsQ in threefold dilutions from 800 µM to 0.5 nM; 10 mM HEPES pH 7.4, 150 mM NaCl, 0.1% Tween 20; 1 h at room temperature.

FtsN (58–320) plus FtsB (22–103), bound together, sequence (A7ZQJ2 22-103): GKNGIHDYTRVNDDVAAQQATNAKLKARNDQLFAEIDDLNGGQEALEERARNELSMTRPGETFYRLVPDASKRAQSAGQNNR
FtsN (58–320) plus FtsB (22–103), bound together, sequence (P29131 57-319): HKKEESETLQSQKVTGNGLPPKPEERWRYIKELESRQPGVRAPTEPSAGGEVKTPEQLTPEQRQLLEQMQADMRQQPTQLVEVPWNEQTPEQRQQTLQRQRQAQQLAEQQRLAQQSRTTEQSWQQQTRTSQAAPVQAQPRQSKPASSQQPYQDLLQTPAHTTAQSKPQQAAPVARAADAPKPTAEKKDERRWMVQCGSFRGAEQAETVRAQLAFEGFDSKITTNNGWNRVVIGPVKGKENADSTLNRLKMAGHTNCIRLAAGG
FtsN (57–319), periplasmic domain of E. coli FtsN, sequence (P29131 57-319): as above

“FtsN (58–320) plus FtsB (22–103), bound together (from UniProt P0A6S5 22-103; P29131 57-319)” came in with a Kd of FtsB and FtsN bound together in experiment [1] of 120 nM.
Take “FtsB R72A (from UniProt P0A6S5 22-103) (domain or fragment)”: the fold reduction of binding against wild-type FtsB in experiment [1] was 10 fold.
With “FtsN (57–319), periplasmic domain of E. coli FtsN (from UniProt P29131 57-319) (domain or fragment)”, in experiment [1], the dissociation constant (Kd) (as a rule, the constant that tells how readily two partners part at equilibrium) was found to be 2500 nM.
The substance “FtsB F84A (from UniProt P0A6S5 22-103) (domain or fragment)” showed a fold reduction of binding against wild-type FtsB in experiment [1] of 10 fold.
Turning to “FtsQ (58–276), periplasmic domain of E. coli FtsQ (from UniProt P06136 58-276) (domain or fragment)”, in experiment [2], the Kd turned out to be 9500 nM.
